“And” between values parts separate entries of the source, which are not always exact repeats. Identical values can stand only once.
B1: 19-bp dsRNA (siRNA duplex) (dsRNA)
RNA 1: GAGACUUGGGCAAUGUGAAGU
RNA 2: GUCACAUUGCCCAAGUCUCUU
B2: DmDcr-2 mutant (D1217N/D1476N, DmDcr-2^DDNN) (enzyme, Drosophila melanogaster, UniProt A1ZAW0 1-1722, looked up)
chain: MEDVEIKPRGYQLRLVDHLTKSNGIVYLPTGSGKTFVAILVLKRFSQDFDKPIESGGKRALFMCNTVELARQQAMAVRRCTNFKVGFYVGEQGVDDWTRGMWSDEIKKNQVLVGTAQVFLDMVTQTYVALSSLSVVIIDECHHGTGHHPFREFMRLFTIANQTKLPRVVGLTGVLIKGNEITNVATKLKELEITYRGNIITVSDTKEMENVMLYATKPTEVMVSFPHQEQVLTVTRLISAEIEKFYVSLDLMNIGVQPIRRSKSLQCLRDPSKKSFVKQLFNDFLYQMKEYGIYAASIAIISLIVEFDIKRRQAETLSVKLMHRTALTLCEKIRHLLVQKLQDMTYDDDDDNVNTEEVIMNFSTPKVQRFLMSLKVSFADKDPKDICCLVFVERRYTCKCIYGLLLNYIQSTPELRNVLTPQFMVGRNNISPDFESVLERKWQKSAIQQFRDGNANLMICSSVLEEGIDVQACNHVFILDPVKTFNMYVQSKGRARTTEAKFVLFTADKEREKTIQQIYQYRKAHNDIAEYLKDRVLEKTEPELYEIKGHFQDDIDPFTNENGAVLLPNNALAILHRYCQTIPTDAFGFVIPWFHVLQEDERDRIFGVSAKGKHVISINMPVNCMLRDTIYSDPMDNVKTAKISAAFKACKVLYSLGELNERFVPKTLKERVASIADVHFEHWNKYGDSVTATVNKADKSKDRTYKTECPLEFYDALPRVGEICYAYEIFLEPQFESCEYTEHMYLNLQTPRNYAILLRNKLPRLAEMPLFSNQGKLHVRVANAPLEVIIQNSEQLELLHQFHGMVFRDILKIWHPFFVLDRRSKENSYLVVPLILGAGEQKCFDWELMTNFRRLPQSHGSNVQQREQQPAPRPEDFEGKIVTQWYANYDKPMLVTKVHRELTPLSYMEKNQQDKTYYEFTMSKYGNRIGDVVHKDKFMIEVRDLTEQLTFYVHNRGKFNAKSKAKMKVILIPELCFNFNFPGDLWLKLIFLPSILNRMYFLLHAEALRKRFNTYLNLHLLPFNGTDYMPRPLEIDYSLKRNVDPLGNVIPTEDIEEPKSLLEPMPTKSIEASVANLEITEFENPWQKYMEPVDLSRNLLSTYPVELDYYYHFSVGNVCEMNEMDFEDKEYWAKNQFHMPTGNIYGNRTPAKTNANVPALMPSKPTVRGKVKPLLILQKTVSKEHITPAEQGEFLAAITASSAADVFDMERLEILGNSFLKLSATLYLASKYSDWNEGTLTEVKSKLVSNRNLLFCLIDADIPKTLNTIQFTPRYTWLPPGISLPHNVLALWRENPEFAKIIGPHNLRDLALGDEESLVKGNCSDINYNRFVEGCRANGQSFYAGADFSSEVNFCVGLVTIPNKVIADTLEALLGVIVKNYGLQHAFKMLEYFKICRADIDKPLTQLLNLELGGKKMRANVNTTEIDGFLINHYYLEKNLGYTFKDRRYLLQALTHPSYPTNRITGSYQELEFIGNAILDFLISAYIFENNTKMNPGALTDLRSALVNNTTLACICVRHRLHFFILAENAKLSEIISKFVNFQESQGHRVTNYVRILLEEADVQPTPLDLDDELDMTELPHANKCISQEAEKGVPPKGEFNMSTNVDVPKALGDVLEALIAAVYLDCRDLQRTWEVIFNLFEPELQEFTRKVPINHIRQLVEHKHAKPVFSSPIVEGETVMVSCQFTCMEKTIKVYGFGSNKDQAKLSAAKHALQQLSKCDA
notes: Dicer-2 (DmDcr-2) of Drosophila melanogaster, full length, with D1217N/D1476N (no dicing activity, helicase activity kept); also called Dicer-2; source: sf9 cells (Bac-to-Bac baculovirus), co-expressed with R2D2, purified (Ni-NTA, Hitrap Q, 2nd Ni-NTA, SEC)
B3: Loqs-PD (Loquacious isoform D), full length (natural protein, Drosophila melanogaster, UniProt Q9VJY9-4 1-359, looked up)
chain: MDQENFHGSSLPQQLQNLHIQPQQASPNPVQTGFAPRRHYNNLVGLGNGNAVSGSPVKGAPLGQRHVKLKKEKISAQVAQLSQPGQLQLSDVGDPALAGGSGLQGGVGLMGVILPSDEALKFVSETDANGLAMKTPVSILQELLSRRGITPGYELVQIEGAIHEPTFRFRVSFKDKDTPFTAMGAGRSKKEAKHAAARALIDKLIGAQLPESPSSSAGPSVTGLTVAGSGGDGNANATGGGDASDKTVGNPIGWLQEMCMQRRWPPPSYETETEVGLPHERLFTIACSILNYREMGKGKSKKIAKRLAAHRMWMRLQETPIDSGKISDSICGELEGEVSIIQDIDRYEQVSKDFEFIKI
notes: Only a small segment of the C-terminus is seen in the maps; also called Loqs isoform D; source: Escherichia coli BL21 (DE3), purified (Ni-NTA, ULP1 cleavage, second Ni-NTA, SEC)
B4: 50-bp dsRNA (dsRNA)
RNA 1: GAGACUUGGGCAAUGUGACUGCUGAUCAGCAGUCACAUUGCCCAAGUCUCUU
RNA 2: B4 RNA 1

How the values were obtained:
[1] = biological target: T1, DmDcr-2 DDNN;R2D2;Loqs-PD (Drosophila melanogaster;Drosophila …, UniProt A1ZAW0;Q9VLW8;Q9VJY9-4 1-1722;1-311;1-359, D1217N;D1476N||); test: cryo-EM; ATP, Mg2+; Trimer state (EMD-34708); Cryo-EM sample buffer not in material; protein SEC buffer 100 mM NaCl, 20 mM Tris-HCl pH 8.0, 1 mM DTT; oligomers formed with ATP and Mg2+; conditions: protein: recombinant;recombinant;recombinant; tags: purified by Ni-NTA
[2] = biological target: the molecule itself; test: cryo-EM structure; DmDcr-2^DDNN/R2D2/Loqs-PD complex with 50-bp dsRNA 1:1, 25 °C for 2 h, diluted to 1 uM in SEC buffer with 5 mM ATP and 5 mM MgCl2
[3] = biological target: B2; test: as above; conditions: both partners purified
[4] = biological target: T2, DmDcr-2^DDNN/R2D2 complex (Drosophila melanogaster, UniProt A1ZAW0 1-1722; Q9VLW8 1-311, D1217N | D1476N); test: SEC; purified DmDcr-2^DDNN/R2D2 and Loqs-PD mixed at a molar ratio of 1:1.5, on ice for 1 h; Superose 6 10/300 Increase in SEC buffer (100 mM NaCl, 20 mM Tris-HCl pH 8.0, 1 mM DTT); conditions: both partners purified
T2 construct: Dicer-2 (DmDcr-2) of Drosophila melanogaster, full length, with D1217N/D1476N; as m1; R2D2 of Drosophila, full length; as m2; Complex formed beforehand, to which Loqs-PD was added; also called DmDcr-2/R2D2; source: sf9 cells (Bac-to-Bac baculovirus), co-expressed, purified (Ni-NTA, Hitrap Q, 2nd Ni-NTA, SEC)

[5] = biological target: T1, DmDcr-2 DDNN;R2D2;Loqs-PD; test: cryo-EM; ATP, Mg2+; Dimer state; Cryo-EM sample buffer not in material; protein SEC buffer 100 mM NaCl, 20 mM Tris-HCl pH 8.0, 1 mM DTT; oligomers formed with ATP and Mg2+; conditions: protein: recombinant;recombinant;recombinant; tags: purified by Ni-NTA

B1: binds [1].

B2 was tested, and the “stoichiometry N” value [2] was 2 and 3.

B3: binds [3]; binds [4].

B4: binds [5].

Source: article PMC10460399 (Nature Communications, 2023)
